# Test results: article PMC5137110, “Relocation of active site carboxylates in major facilitator superfamily multidrug transporter LmrP reveals plasticity in proton interactions” (Scientific Reports, 2016)
# Columns and labels:
# LmrP = biological target: T1, LmrP (Lactococcus lactis, UniProt Q48658); experiment: fluorescence anisotropy, purified protein titrated into propidium; format: binding; conditions: 50 mM KPi pH 7.0, 100 mM NaCl, 0.05% DDM; 0.2 or 1 μM propidium
# T1 construct: full length, 408 residues; His6-tagged (His10-tagged for T331E); plasmid pNZ8084; expressed in L. lactis NZ9000 delta-lmrA delta-lmrCD
# [1] = system: CC[n+]1c(-c2ccccc2)c2cc(N)ccc2c2ccc(N)cc21; experiment: cells, lysate or membranes; format: cell-based, Lactococcus lactis; conditions: 50 mM KPi pH 7.0, 5 mM MgSO4, corrected for influx in cells without LmrP
# [2] = system: CC[N+](C)(CC)CCC[n+]1c(-c2ccccc2)c2cc(N)ccc2c2ccc(N)cc21; experiment: cells, lysate or membranes; format: cell-based, Lactococcus lactis; conditions: 50 mM KPi pH 7.0, 5 mM MgSO4, corrected for influx in cells without LmrP
Compound,"fluorescence anisotropy, purified protein titrated into propidium (LmrP)",Km [1] [µM],Km [2] [µM]
CC[N+](C)(CC)CCC[n+]1c(-c2ccccc2)c2cc(N)ccc2c2ccc(N)cc21 [propidium],propidium binding to purified T331E LmrP and WT LmrP was measured by fluorescence anisotropy,,
LmrP (Lactococcus lactis),,7.7 ± 5.1,1.3 ± 0.2
